Patent publication US12698507B2, “Methods and compositions for conferring and/or enhancing herbicide tolerance using protoporphyrinogen IX oxidase of various cyanobacteria or variant thereof” (FarmHannong Co., Ltd., priority 2019, dated 2026)
Numbering of substitutions follows the chain as printed. In names and notes the source's numbering stands.

B1: CyPPO19 R89A + V305M + F360T: variant of CyPPO19 PPO protein (SEQ ID NO: 1) (protein)
chain: MSEVDVAIVGGGLSGLSLAWRLQQSAPQYSVVLLEASDRLGGNITTQTAEGFVWELGPNSFAPTPALLQLIAEVGLQSELIRGDRHLPAYIYWRGQLYPLQPTRPLALATSNLLSPWGKVRAALGALGFVPPYLGSGDESVNSFFRRHLGQEVAERLVAPFVSGVYAGDPQQLSAAAAFRRIAQLEKLGGGLIAGALHLRRQQAPKPKPPTSVQMRPGELGSFKEGLAALPRAIAQQLKAPIHLQTPVQEITPDPKGGYLLRSGEQTWRARSVVLATPAYQTAELVAPFQPAIARVLATIPYPTMACVVLAYPAGLGRSVRPGFGVLIPRSQGIRTLGTIWSSCLFPQRTPAGWQVFTSTIGGATDPDLASLSEEAIVQQVQQDLNRLLDLPAAKARLLGMKVWRRAIPQYMVGYPEQWQQVTHALSQTPGLFLCSNYAEGVALGDRVEHGNRTAAAVAAYLSGGQP
modifications: Synthetic_PPO of Thermosynechococcus elongatus PKUAC-SCTE542 (comprising GenBank No. CP032152.1)
B2: CyPPO19 R89A + L327T + F360M: variant of CyPPO19 PPO protein (SEQ ID NO: 1) (protein)
chain: B1 chain with M305V, L327T, T360M
modifications: Synthetic_PPO of Thermosynechococcus elongatus PKUAC-SCTE542 (comprising GenBank No. CP032152.1)
B3: CyPPO19 R89A + L327T + F360I: variant of CyPPO19 PPO protein (SEQ ID NO: 1) (protein)
chain: B1 chain with M305V, L327T, T360I
modifications: Synthetic_PPO of Thermosynechococcus elongatus PKUAC-SCTE542 (comprising GenBank No. CP032152.1)
B4: CyPPO19 R89A + I408R + F360L: variant of CyPPO19 PPO protein (SEQ ID NO: 1) (protein)
chain: B1 chain with M305V, T360L, I408R
modifications: Synthetic_PPO of Thermosynechococcus elongatus PKUAC-SCTE542 (comprising GenBank No. CP032152.1)
B5: CyPPO19 R89A + L327T + F360T: variant of CyPPO19 PPO protein (SEQ ID NO: 1) (protein)
chain: B1 chain with M305V, L327T
modifications: Synthetic_PPO of Thermosynechococcus elongatus PKUAC-SCTE542 (comprising GenBank No. CP032152.1)
B6: CyPPO19 V165S + A167I + F360M: variant of CyPPO19 PPO protein (SEQ ID NO: 1) (protein)
chain: B1 chain with A89R, V165S, A167I, M305V, T360M
modifications: Synthetic_PPO of Thermosynechococcus elongatus PKUAC-SCTE542 (comprising GenBank No. CP032152.1)
B7: CyPPO19 R89A + I408R + F360M: variant of CyPPO19 PPO protein (SEQ ID NO: 1) (protein)
chain: B1 chain with M305V, T360M, I408R
modifications: Synthetic_PPO of Thermosynechococcus elongatus PKUAC-SCTE542 (comprising GenBank No. CP032152.1)
B8: CyPPO19 R89A + I408W + F360V: variant of CyPPO19 PPO protein (SEQ ID NO: 1) (protein)
chain: B1 chain with M305V, T360V, I408W
modifications: Synthetic_PPO of Thermosynechococcus elongatus PKUAC-SCTE542 (comprising GenBank No. CP032152.1)

system: PPO-deficient BT3 E. coli (ΔPPO); test: PPO-inhibiting herbicide tolerance test of PPO variants in E. coli (growth on herbicide-containing LB agar); assay type: cell-based; details: CyPPO19 variants in BT3 (ΔPPO) E. coli; LB agar with 0 to 2,000 μM herbicide, 37° C., dark, 16-20 hours
Excerpt: To enhance the PPO-inhibiting herbicide resistance of CyPPO19 and CyPPO18, PPO variant genes of the above example 2 were constructed. They were transformed to BT3 (ΔPPO) strain which is deficient of PPO activity and cultured in LB media with PPO-inhibiting herbicide, thereby examining whether growth of transformed BT3 was not inhibited.
BT3 competent cells were transformed with the pET303-CyPPO19 (wild type), pET303-CyPPO18 (wild type) plasmids, and those with a mutation(s) constructed (refer to example 2) via heat shock method, and were cultured in LB agar media containing ampicillin.
Single colony transformed with each CyPPO gene was cultured in 3 mL of LB broth (LPSS) containing ampicillin for more than 12 hours, and then was subcultured in LB broth until absorbance (OD600) reached 0.5 to 1. Then, it was diluted with LB broth to OD600=0.5. Again, the diluted solution was serially diluted 4 times by a factor of one tenth.
The LB agar media (LB 25 g/L, Bacto agar 12 g/L) containing ampicillin (100 μg/mL) and 0 to 2,000 μM of various herbicides were prepared. Herbicide solution stocks were all prepared in DMSO.
Then, 10 μL of each diluted solution of E. coli was dropped on the plate and cultured at 37° C. under dark for 16-20 hours. PPO-inhibiting herbicide resistance was evaluated with the extent of E. coli growth containing each gene was observed.
The extent of herbicide resistance was evaluated by the relative growth of variants to that of wild type, and listed in Tables 9 and 10 and FIGS. 3 to 32.
In Tables 9 and 10, the tolerance level of variants showing equivalent resistance to wild type was presented as ‘−’, and was done as ‘+’ per each 10-fold resistance until ‘+++++’ as maximal resistance.
FIGS. 3 to 30 and FIGS. 31 and 32 show the transformed E. coli growth result of CyPPO19 WT and its variants and CyPPO18 WT and its variants, respectively. The concentrations of herbicides were written above the photographs of tolerance test. A 10-fold dilution series of spots were shown from OD600=0.5 of the leftmost spot to OD600=0.00005 of the rightmost one.

Row | Molecule | tolerance level relative to wild type, Carfentrazone | tolerance level relative to wild type, Flumioxazin | tolerance level relative to wild type, Fomesafen | tolerance level relative to wild type, Oxyfluorfen | tolerance level relative to wild type, Saflufenacil | tolerance level relative to wild type, Sulfentrazone | tolerance level relative to wild type, Tiafenacil
1 | B1 | ++ (‘+’ per each 10-fold resistance) | +++++ (until ‘+++++’ as maximal resistance) | +++ (‘+’ per each 10-fold resistance) | +++ (‘+’ per each 10-fold resistance) | +++++ (until ‘+++++’ as maximal resistance) | +++++ (until ‘+++++’ as maximal resistance) | +++++ (until ‘+++++’ as maximal resistance)
2 | B2 | + (‘+’ per each 10-fold resistance) | ++++ (‘+’ per each 10-fold resistance) | +++ (‘+’ per each 10-fold resistance) | ++ (‘+’ per each 10-fold resistance) | ++ (‘+’ per each 10-fold resistance) | ++ (‘+’ per each 10-fold resistance) | +++ (‘+’ per each 10-fold resistance)
3 | B3 | + (‘+’ per each 10-fold resistance) | ++++ (‘+’ per each 10-fold resistance) | ++ (‘+’ per each 10-fold resistance) | + (‘+’ per each 10-fold resistance) | ++ (‘+’ per each 10-fold resistance) | +++ (‘+’ per each 10-fold resistance) | ++++ (‘+’ per each 10-fold resistance)
4 | B4 | + (‘+’ per each 10-fold resistance) | +++ (‘+’ per each 10-fold resistance) | + (‘+’ per each 10-fold resistance) | + (‘+’ per each 10-fold resistance) | +++ (‘+’ per each 10-fold resistance) | ++ (‘+’ per each 10-fold resistance) | +++ (‘+’ per each 10-fold resistance)
5 | B5 | + (‘+’ per each 10-fold resistance) | +++++ (until ‘+++++’ as maximal resistance) | +++++ (until ‘+++++’ as maximal resistance) | +++ (‘+’ per each 10-fold resistance) | +++++ (until ‘+++++’ as maximal resistance) | +++++ (until ‘+++++’ as maximal resistance) | +++++ (until ‘+++++’ as maximal resistance)
6 | B6 | + (‘+’ per each 10-fold resistance) | +++++ (until ‘+++++’ as maximal resistance) | ++ (‘+’ per each 10-fold resistance) | ++ (‘+’ per each 10-fold resistance) | ++++ (‘+’ per each 10-fold resistance) | +++ (‘+’ per each 10-fold resistance) | +++++ (until ‘+++++’ as maximal resistance)
7 | B7 | + (‘+’ per each 10-fold resistance) | ++++ (‘+’ per each 10-fold resistance) | +++ (‘+’ per each 10-fold resistance) | ++ (‘+’ per each 10-fold resistance) | ++++ (‘+’ per each 10-fold resistance) | +++ (‘+’ per each 10-fold resistance) | +++ (‘+’ per each 10-fold resistance)
8 | B8 | + (‘+’ per each 10-fold resistance) | +++++ (until ‘+++++’ as maximal resistance) | +++++ (until ‘+++++’ as maximal resistance) | +++ (‘+’ per each 10-fold resistance) | +++++ (until ‘+++++’ as maximal resistance) | +++++ (until ‘+++++’ as maximal resistance) | +++++ (until ‘+++++’ as maximal resistance)
